These results are taken from patent US20220017630A1 (JIANGSU SIMCERE PHARMACEUTICAL, published 2022).

T1: mouse TNFR2 (mouse, UniProt P25119 23-258, limits assumed)
T1 sequence (looked up): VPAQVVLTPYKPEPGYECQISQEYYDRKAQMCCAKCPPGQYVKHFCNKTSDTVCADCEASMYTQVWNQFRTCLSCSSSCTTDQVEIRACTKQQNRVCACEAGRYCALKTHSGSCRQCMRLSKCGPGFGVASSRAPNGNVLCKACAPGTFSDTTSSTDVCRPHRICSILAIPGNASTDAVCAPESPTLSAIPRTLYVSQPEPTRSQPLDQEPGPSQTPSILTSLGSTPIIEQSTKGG

T2: human CREG-His protein (human, UniProt O75629 32-220, limits assumed)
T2 construct: Control antigen in ELISA; also called control human CREG-His
T2 sequence (looked up): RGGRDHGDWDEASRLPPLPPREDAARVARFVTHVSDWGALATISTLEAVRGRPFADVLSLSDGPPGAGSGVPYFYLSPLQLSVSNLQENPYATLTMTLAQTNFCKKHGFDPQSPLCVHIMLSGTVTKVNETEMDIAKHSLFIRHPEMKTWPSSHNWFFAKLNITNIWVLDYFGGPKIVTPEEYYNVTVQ

T3: Human TNFR2 recombinant protein (Sino 10417-H08H) (human, UniProt P20333 23-257)
T3 construct: also called hTNFR2 (His tag)
T3 sequence (looked up): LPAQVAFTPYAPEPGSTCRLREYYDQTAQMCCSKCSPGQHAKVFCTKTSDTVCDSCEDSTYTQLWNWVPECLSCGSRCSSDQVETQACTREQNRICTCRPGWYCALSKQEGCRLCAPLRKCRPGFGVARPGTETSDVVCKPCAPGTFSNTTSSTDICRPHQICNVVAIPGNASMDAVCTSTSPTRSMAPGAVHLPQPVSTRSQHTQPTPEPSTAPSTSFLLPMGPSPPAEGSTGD

T4: cynomolgus TNFR2 (Sino 90102-C08H) (cynomolgus, UniProt A0A2K5VET2 132-366)
T4 construct: also called CynoTNFR2 (His tag)
T4 sequence: T3 sequence (looked up) with S16G, S36P, P117Q, N164H, E210A, S216G, M223V

T5: human TNFR2 on the cell surface (CHO-TNFR2 cells; human Treg cells) (human, UniProt P20333 23-461)
T5 construct: whole, on cells; The assay field of each row says which cells; also called TNFR2-CHO cell; TNFR2 on Treg cells
T5 sequence (looked up): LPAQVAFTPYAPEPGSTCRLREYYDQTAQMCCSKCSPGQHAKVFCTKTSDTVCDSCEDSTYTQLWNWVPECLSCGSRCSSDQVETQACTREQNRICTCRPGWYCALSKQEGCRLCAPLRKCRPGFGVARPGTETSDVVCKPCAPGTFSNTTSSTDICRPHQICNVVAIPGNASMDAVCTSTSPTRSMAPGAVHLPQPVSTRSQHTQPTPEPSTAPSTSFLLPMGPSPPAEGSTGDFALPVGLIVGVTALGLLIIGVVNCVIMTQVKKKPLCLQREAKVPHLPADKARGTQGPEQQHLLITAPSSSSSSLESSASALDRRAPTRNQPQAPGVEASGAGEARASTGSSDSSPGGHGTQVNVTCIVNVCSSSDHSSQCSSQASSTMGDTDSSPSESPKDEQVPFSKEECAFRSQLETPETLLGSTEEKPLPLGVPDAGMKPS

T6: human TNFR2 (Novoprotein, Catalog No. C830) (human, UniProt P20333 23-257, limits assumed)
T6 construct: construct not described; also called TNFR2 protein
T6 sequence (looked up): T3 sequence (looked up)

B1: TNFR2 antibody #133 (antibody, V domains shown)
VH: EVQLQESGAELVRSGASVKLSCTASGFNIKDYYIQWVKQRPEQGLEWIGWIDPESGNTKYAPKFQDKATMTADTSSNTAYLQLSGLTSEDSAVYYCNAYYDYDGSMDYWGQGTTVTVSS
VL: DIVMTQSPLSLPVSLGDQASISCRSSQSLVHSNGNTYLHWYLQKPGQSPKLLIYKVSNRFSGVPDRFSGSGSGTDFTLKISRVETDDLGVYFCSQSTHVPTWTFGGGTKLEIK
B2: TNFR2 antibody #224 (antibody, V domains shown)
VH: EVQLQESGPEIVKPGASVKLSCTASGFNNKDIYMHWVKQRPEQGLEWIGRIDPATGNTKHDPKFQDKATLSSDTSSNTAYLQFSSLTSEDTAVYYCAHSPYGDFGAMDYWGQGTTVTVSS
VL: DIQMTQSPAIMSASLGERVTMTCTASSSVSSNYLHWYQQKPGSSPKLWIYSTSNLPSGVPARFSGSGSGTSYSLTISSMEAEDAATYYCHQYHRSPWTFGGGTKLEIK
B3: TNFR2 antibody #125 (antibody, V domains shown)
VH: EVQLQESGGGLVQPGGSLNLSCAASGFAFSIYDLSWVRQTPEKRLEWVAYINNGGISTYYSDTVKGRFTISRDNAKNTLYLQMSSLKSEDTAMYYCVRGPFYGSANYFDYWGQGTTVTVSS
VL: DIQMTQSPASLSLSVGETVTITCRASENIYSNLAWYQQKQGKSPQLLVYDATKLAEGVPSRFSGSESGTQYSLKINSLQSEDFGTYYCQHFWVTPWTFGGGTKLEIK
B4: TNFR2 antibody #001 (antibody, V domains shown)
VH: B3 VH with I31T
VL: B3 VL with D1E, Q3V, A25T, N28S, A34P
notes: also called antibody #1
B5: TNFR2 antibody #219 (antibody, V domains shown)
VH: EVQLQESGAELVRPGASVKLSCKASGYSFTNYWMNWVKQRPGQGLEWIGMIHPSDTETRLNQNFKDKATLTVDKSSSTSYMQLSSPTSEDSAVYYCARGEGLGAARSVSMDYWGQGTTVTVSS
VL: DILMTQSPSSLSASLGDRVTISCRASQDISNYLNWYQQKPDGTVKVLIYYTAILHSGVPSRFSGSGSGTDYSLTISNLEQEDIATYFCQQGNTLPWTFGGGTKLEIK
B6: TNFR2 antibody #226 (antibody, V domains shown)
VH: B5 VH with T56S, N63K, S79A
VL: B5 VL with L3Q, I53L
B7: TNFR2 antibody #352 (antibody, V domains shown)
VH: EVQLQESGPGLVAPSQSLSITCTVSGFSLTSYGVHWVRQPPGKGLEWLVVIWSDGGTTYNSALKSRLSISKDNSKSQVFLKMNSLQTDDTAMYYCARHDDDGYYAMDYWGQGTTVTVSS
VL: DIVLTQSPSLMSASPGEKVTMTCSASSSVGYMYWYQQKPRSSPKPWIYLTSNLASGVPARFSGSGSGTSYSLTISSMEVEDAATYYCQQWSSDPFTFGSGTKLEIK
B8: TNFR2 antibody #365 (antibody, V domains shown)
VH: EVQLQESGPGLVQPSQSLSITCTVSGFSLTSYGVHWVRQSPGKGLEWLGLIWSDGSPDYSAAFISRLSINKDNSKSQVFFKMNSLQADDTAIYYCARNDDGGDYVMDYWGQGTTVTVSS
VL: B7 VL with D1E, S9A, G30S, V79A, S91T, D93N, F95L, S99A

Positions count from the first letter of the chain named.

One assay deals with T1, mouse TNFR2. In words: ELISA. In general terms: ELISA stands for enzyme-linked immunosorbent assay.
Take B1: the binding result was “no binding (tested: 28 ng/ml)”.
On the same count and under the same terms, in the case of B2 it was “no binding (tested: 28 ng/ml)”; in that of B3, “no binding (tested: 28 ng/ml)”; in that of B4, “no binding (tested: 28 ng/ml)”.
For B5, the binding result is listed as “no binding (tested: 28 ng/ml)”.
The same measure, in the same setting: in the case of B6 it was “no binding (tested: 28 ng/ml)”; in that of B7, “no binding (tested: 28 ng/ml)”.
With B8, the binding result was “no binding (tested: 28 ng/ml)”.

In another assay the target is T2, human CREG-His protein. The assay can be described thus: ELISA.
For B1, the binding result was “no binding (tested: 28 ng/ml)”.
Take B2: the binding result is “no binding (tested: 28 ng/ml)”.
Regarding B3, the binding result is on record as “no binding (tested: 28 ng/ml)”.
Regarding B4, the binding result was “no binding (tested: 28 ng/ml)”.
Consider B5, for which the binding result is “no binding (tested: 28 ng/ml)”.
For the molecule B6, the binding result is “no binding (tested: 28 ng/ml)”.
B7: the binding result is on record as “no binding (tested: 28 ng/ml)”.
For B8, the binding result is reported as “no binding (tested: 28 ng/ml)”.

The next assay concerns the target T3, Human TNFR2 recombinant protein (Sino …). In words: ELISA, coated antigen 0.5 ug/ml, antibody 28 ng/ml. Here is the method: (§1) An microplate was pre-coated with 100 μl/well of 0.5 μg/ml human TNFR2 or cynomolgus TNFR2 (the same antigen protein as in Example 4). […] A mouse anti-human IgG Fc-HRP working solution (1:10000 dilution) was added to the plate at 100 μl/well after plate washing, and incubated with shaking at room temperature for 1.0 h. The plate was washed again, a HRP substrate TMB was added for color development prior to the termination of the reaction by adding termination solution. An microplate reader was used to read the absorption value.
B1: the “ELISA OD” value is 3.12 OD.
Regarding B2, the “ELISA OD” value was 2.23 OD.
As for B3, the “ELISA OD” value stood at 3.32 OD.
In the case of B4, the “ELISA OD” value was determined as 2.81 OD.
With B5, the “ELISA OD” value turned out to be 3.37 OD.
For B6, the “ELISA OD” value was 3.34 OD.
Turning to B7, the “ELISA OD” value came to 3.12 OD.
On to B8, for which the “ELISA OD” value worked out at 3.19 OD.

A further assay concerns the target T4, cynomolgus TNFR2 (Sino 90102-C08H). The assay can be described thus: ELISA, coated antigen 0.5 ug/ml, antibody 28 ng/ml. Here is the method:
as §1
Turning to B1, the “ELISA OD” value worked out at 3.18 OD.
B2: the “ELISA OD” value turned out to be 2.66 OD.
In the case of B3, the “ELISA OD” value was found to be 3.25 OD.
In the case of B4, the “ELISA OD” value stood at 2.64 OD.
The same measure, in the same setting: in the case of B5 it was 3.41 OD.
In the case of B6, the “ELISA OD” value was determined as 3.28 OD.
Regarding B7, the “ELISA OD” value stood at 3.12 OD.
Still for that read-out and setting: in the case of B8 it was 3.15 OD.

A further assay concerns the target T5, human TNFR2 on the cell surface …. The assay can be described thus: flow cytometry, blocking of TNFα-biotin on CHO-TNFR2 cells. On the procedure: CHO cells that stably overexpressed human TNFR2 were used for experiments. The cells were resuscitated and passaged until in good state, and the expression level of human TNFR2 on the cells was assessed by FACS. Compared to the isotype control, the assay could be carried out when the fold change of mean fluorescence intensity (MFI) was more than 100 times.
CHO-TNFR2 cells were digested, washed twice with DPBS and stained with Live/Dead (L/D) at room temperature for 20 min, and then seeded at 1×10⁵ cells/50 μl/well. […] The diluted antibodies were added 50 μl/well into wells pre-seeded with cells, and gently blown and mixed to make the final concentrations of the antibodies to 20, 6.67, 2.22, 0.74, 0.247, 0.08, 0.027 and 0 nM, respectively followed by incubation at 4° C. for 30 min. […] After washing twice with the staining buffer, 100 μl/well of PE-streptavidin was added and incubated at 4° C. for 30 min. After additional washing with the staining buffer twice, 150 μl resuspended cells was analyzed using an flow cytometry. Taking the logarithmic value of the antibody concentrations as abscissa and the corresponding MFI value as ordinate, the inhibition curve of the antibody was drawn, and the IC50 value was calculated by four parameters fitting.
In general terms: A flow cytometer gives signals particle by particle.
The molecule B1 yielded an IC50 of 0.04 µg/mL.
In turn, B2 displayed an IC50 of 0.128 µg/mL.
The molecule B3 returned an IC50 of 0.109 µg/mL.
B4 registered an IC50 of 0.14 µg/mL.
With B5, the IC50 was 0.101 µg/mL.
The same measure, in the same setting: in the case of B6 it was 0.06 µg/mL.
B7 displayed an IC50 of 0.056 µg/mL.
Take B8: the IC50 came to 0.041 µg/mL.

For the next assay, the target named is T6, human TNFR2 (Novoprotein, Catalog No. …). In words: blocking ELISA, TNFα-biotin on coated human TNFR2; 002# OD / antibody OD x 100. On the procedure: A microplate was pre-coated with 100 μl/well of 1 μg/ml human TNFR2 (Novoprotein, Catalog No. C830). […] After washing the plate, a Streptavidin-HRP working solution (1:10000 dilution) was added at 100 μl/well, and incubated with shaking at room temperature for 40 min. The plate was washed again, the HRP substrate TMB was added for color development, the termination solution was added to terminate the reaction, and the microplate reader was used to read the absorption value.
Regarding B1, the “% to 002# OD (2 nM)” value is 74.6% and the “% to 002# OD (20 nM)” value worked out at 110%.
As to B2, the “% to 002# OD (2 nM)” value turned out to be 101% and the “% to 002# OD (20 nM)” value was found to be 277%.
For B3, the “% to 002# OD (2 nM)” value amounted to 113% and the “% to 002# OD (20 nM)” value is 154%.
B4: the “% to 002# OD (2 nM)” value was determined as 84.2% and the “% to 002# OD (20 nM)” value was 126%.
For the molecule B5, the “% to 002# OD (2 nM)” value was found to be 89.7% and the “% to 002# OD (20 nM)” value is 89%.
Consider B6, for which the “% to 002# OD (2 nM)” value turned out to be 95.7% and the “% to 002# OD (20 nM)” value is 105%.
Take B7: the “% to 002# OD (2 nM)” value turned out to be 88.2% and the “% to 002# OD (20 nM)” value is 106%.
Turning to B8, the “% to 002# OD (2 nM)” value turned out to be 124% and the “% to 002# OD (20 nM)” value was 120%.

One may read the IC50 as the concentration that inhibits the measured activity by half. Low readings indicate higher potency, high ones lower potency.
